The values below come from patent US20260167721A1 (ABLEXIS, published 2026).

Test [1] addresses T1, recombinant human CD3 epsilon/delta heterodimer (human, UniProt P07766 23-126; P04234 22-105).
T1 construct: Recombinant protein in solution (200-50 nM) in the Octet assay; also called hCD3 E/D; human CD3E/D
Description: Octet BLI, mAb on FAB2G sensor, hCD3 E/D 200-50 nM; R^2 0.98.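 Note: antibodies purified from hybridoma supernatants, measured by Octet binding to recombinant human CD3 protein.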 In general terms: Biolayer interferometry detects binding as a change in optical thickness at a sensor tip.

The target of test [2] is T2, recombinant human CD3 epsilon/gamma heterodimer (human, UniProt P07766 23-126; P09693 23-116).
T2 construct: Recombinant protein in solution (200-50 nM) in the Octet assay; also called hCD3 E/G
The test is described as follows: Octet BLI, mAb on FAB2G sensor, hCD3 E/G 200-50 nM; R^2 0.90.

Test [3] deals with T2, recombinant human CD3 epsilon/gamma …. Description: Octet BLI, mAb on FAB2G sensor, hCD3 E/G 200-50 nM; R^2 0.95.
Test [4] concerns the target T1, recombinant human CD3 epsilon/delta …. Description: Octet BLI, mAb on FAB2G sensor, hCD3 E/D 200-50 nM; R^2 1.00.
The target of test [5] is T2, recombinant human CD3 epsilon/gamma …. The test is described as follows: Octet BLI, mAb on FAB2G sensor, hCD3 E/G 200-50 nM; R^2 0.00.
The target of test [6] is CD3 on effector cells (human Pan-T or PBMC) (human, UniProt P07766 23-207; P04234 22-171; P09693 23-182; P20963 22-164). The test is described as follows: cell-based or functional assay.
Test [7] has as its target recombinant CD3 proteins. The test is described as follows: Octet (BLI), bispecific antibody against recombinant CD3 proteins.
Test [8] deals with recombinant CD3 proteins. Description: Octet (BLI), bispecific antibody against recombinant CD3 proteins; Full R^2 0.00.

T1 sequence (P07766 23-126, stated change not applied, chain 1 of 2): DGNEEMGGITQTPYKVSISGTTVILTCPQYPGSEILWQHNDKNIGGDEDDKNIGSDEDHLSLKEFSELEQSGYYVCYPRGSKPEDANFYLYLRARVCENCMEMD
T1 sequence (P04234 22-105, stated change not applied, chain 2 of 2): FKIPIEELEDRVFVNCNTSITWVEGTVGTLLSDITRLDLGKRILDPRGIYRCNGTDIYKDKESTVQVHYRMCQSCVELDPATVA
T2 sequence (P07766 23-126, chain 1 of 2): as the sequence (P07766 23-126, stated change not applied, chain 1 of 2) above
T2 sequence (P09693 23-116, chain 2 of 2): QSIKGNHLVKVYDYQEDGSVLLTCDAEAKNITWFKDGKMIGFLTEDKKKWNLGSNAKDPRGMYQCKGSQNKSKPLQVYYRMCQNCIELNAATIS
Sequence of CD3 on effector cells (human Pan-T or PBMC) (P07766 23-207, chain 1 of 4): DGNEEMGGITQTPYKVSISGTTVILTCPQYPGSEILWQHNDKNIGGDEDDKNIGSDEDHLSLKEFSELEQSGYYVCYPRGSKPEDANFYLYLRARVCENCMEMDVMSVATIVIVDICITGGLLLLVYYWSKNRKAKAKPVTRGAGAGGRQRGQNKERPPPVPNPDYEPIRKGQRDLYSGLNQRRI
Sequence of CD3 on effector cells (human Pan-T or PBMC) (P04234 22-171, chain 2 of 4): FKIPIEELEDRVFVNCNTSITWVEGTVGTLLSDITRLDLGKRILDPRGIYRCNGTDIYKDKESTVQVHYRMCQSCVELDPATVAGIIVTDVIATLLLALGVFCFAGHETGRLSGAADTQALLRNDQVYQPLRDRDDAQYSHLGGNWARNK
Sequence of CD3 on effector cells (human Pan-T or PBMC) (P09693 23-182, chain 3 of 4): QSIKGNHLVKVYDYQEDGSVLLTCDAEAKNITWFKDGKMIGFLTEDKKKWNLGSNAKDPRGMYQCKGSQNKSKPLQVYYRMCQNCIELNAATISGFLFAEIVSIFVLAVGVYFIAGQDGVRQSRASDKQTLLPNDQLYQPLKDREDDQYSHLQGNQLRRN
Sequence of CD3 on effector cells (human Pan-T or PBMC) (P20963 22-164, chain 4 of 4): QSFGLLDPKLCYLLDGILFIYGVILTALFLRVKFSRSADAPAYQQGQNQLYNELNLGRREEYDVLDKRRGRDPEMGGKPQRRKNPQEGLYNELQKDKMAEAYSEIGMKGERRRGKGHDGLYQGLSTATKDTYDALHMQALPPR

B1: ABL-CD3-44 (antibody, V domains shown)
VH: EVQLVESGGGLVQPGGSLRLSCAASGFTFSTYWMSWVRQAPGKGLEWVANIKQDGSEKYYVDSVKGRFTISRDNAKNSLYLQMNSLRAEDTAVYYCATGSFDYWGQGTLVTVSS
VL: QPVLTQPSSHSASSGASVRLTCMLSSGFSVGDFWIRWYQQKPGNPPRYLLFYHSDSNKGQGSGVPSRFSGSNDASANAGILRISGLQPEDEADYYCGTWHSNSKTWVFGGGTKLTVL
notes: Chimeric hybridoma mAb: human V, CH1, upper hinge; mouse middle hinge, CH2, CH3
Regarding B1, in test [1], the Kd (in general, the equilibrium constant for the complex coming apart) is 356 nM; the Response is 0.03; the koff (commonly the rate constant with which the complex falls apart) was 0.000184 s⁻¹; the kon (in general, the second-order rate constant of association) amounted to 517 M⁻¹ s⁻¹. In addition, the Kd in test [2] was under 0.001 nM.

B2: ABL-CD3-61 (antibody, V domains shown)
VH: EVQLVESGGGLVKPGGSLRLSCAASGFTFSSYSMNWVRQAPGKGLEWVSSISRSGTYIYYADSVKGRFTISRDNAKNSLYLQMNSLRAEDTAVYYCARERWELLYFDYWGQGTLVTVSS
VL: QTVVTQEPSLTVSPGGTVTLTCASSTGAVTSGYYPNWFQQKPGQAPRALIYSTSNKHSWTPARFSGSLLGGKAALTLSGVQPEDEAEYYCLLYYGGAYVFGTGTKVTVL
notes: as for B1
B2: in test [3], the Kd worked out at 69.2 nM, the koff was 0.0402 s⁻¹ and the kon was found to be 581000 M⁻¹ s⁻¹. For the same molecule, in test [1], the Kd was determined as 117 nM, the Response is 0.26, the off-rate constant (koff) is 0.0218 s⁻¹ and the kon came out at 187000 M⁻¹ s⁻¹.

B3: ABL-CD3-39 (antibody, V domains shown)
VH: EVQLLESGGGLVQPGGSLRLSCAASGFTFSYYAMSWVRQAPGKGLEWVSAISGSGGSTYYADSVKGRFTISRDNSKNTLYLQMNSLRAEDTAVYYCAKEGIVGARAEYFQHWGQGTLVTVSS
VL: DVVMTQSPLSLPVTLGQPASISCRSSQSLVYSDGNTYLTWFQQRPGQSPRRLIYKVSNRDSGVPDRFSGSGSGTDFTLKISRVEAEDVEIYYCMQGTHWPLTFGGGTKVEIK
notes: as for B1
In the case of B3, in test [4], the Kd was 8.32 nM, the Response was determined as 0.41, the koff was 0.000307 s⁻¹ and the kon stood at 36900 M⁻¹ s⁻¹. Moreover, in test [5], the Kd was under 0.001 nM, the koff is under 1e-07 s⁻¹ and the kon is 50000 M⁻¹ s⁻¹.

B4: CD3 × CD33-BspAb66 (bispecific antibody, human IgG1, kappa)
scFv: EVQLVESGGGLVQPGRSLRLSCAASGFTFDDYAMHWVRQAPGKGLEWVSGISWNSGSIGYADSVKGRFTISRDNAKNSLYLQMNSLRAEDTALYYCAKDSRGYGDYRLGGAYWGQGTLVTVSSGGGGSGGGGSGGGGSGGGGSEIVMTQSPATLSVSPGERATLSCRASQSVSSNLAWYQQKPGQAPRLLIYGASTRATGIPARFSGSGSGTEFTLTISSLQSEDFAVYYCQQYNNWPWTFGQGTKVEIKTSGPGGPDKTHTCPPCPAPEFEGGPSVFLFPPKPKDTLMISRTPEVTCVVVDVSHEDPEVKFNWYVDGVEVHNAKTKPREEQYNSTYRVVSVLTVLHQDWLNGKEYKCKVSNKALPASIEKTISKAKGQPREPQVYTLPPCREEMTKNQVSLWCLVKGFYPSDIAVEWESNGQPENNYKTTPPVLDSDGSFFLYSKLTVDKSRWQQGNVFSCSVMHEALHNHYTQKSLSLSPGK
heavy: EVQLVQSGAEVKKPGSSVKVSCKASGYTITDSNIHWVRQAPGQSLEWIGYIYPYNGGTDYNQKFKNRATLTVDNPTNTAYMELSSLRSEDTAFYYCVNGNPWLAYWGQGTLVTVSSASTKGPSVFPLAPSSKSTSGGTAALGCLVKDYFPEPVTVSWNSGALTSGVHTFPAVLQSSGLYSLSSVVTVPSSSLGTQTYICNVNHKPSNTKVDKRVEPKSCDKTHTCPPCPAPEFEGGPSVFLFPPKPKDTLMISRTPEVTCVVVDVSHEDPEVKFNWYVDGVEVHNAKTKPREEQYNSTYRVVSVLTVLHQDWLNGKEYKCKVSNKALPASIEKTISKAKGQPREPQVCTLPPSREEMTKNQVSLSCAVKGFYPSDIAVEWESNGQPENNYKTTPPVLDSDGSFFLVSKLTVDKSRWQQGNVFSCSVMHEALHNRFTQKSLSLSPGK
light: DIQLTQSPSTLSASVGDRVTITCRASESLDNYGIRFLTWFQQKPGKAPKLLMYAASNQGSGVPSRFSGSGSGTEFTLTISSLQPDDFATYYCQQTKEVPWSFGQGTKVEVKRTVAAPSVFIFPPSDEQLKSGTASVVCLLNNFYPREAKVQWKVDNALQSGNSQESVTEQDSKDSTYSLSSTLTLSKADYEKHKVYACEVTHQGLSSPVTKSFNRGEC
notes: also called CD3δε-specific control antibody scFv-Fc knob/TM; CD3xCD33-BspAb66
On to B4, for which, in test [6], the “RTCC EC50 (nM), KILR HL-60 T Cell Redirection cytotoxic assay with CD33-expressing target cells” value was found to be 25.4 nM. Moreover, the Response with recombinant CD3 proteins [7] was 0.03. In the test with recombinant CD3 proteins [8], the Kd is 0.854 nM, the koff worked out at 1.07e-05 s⁻¹ and the kon was found to be 12500 M⁻¹ s⁻¹.
